Measured values from patent US20040254341A1 (published 2004).
Non-standard residues stand in square brackets, D forms with d. No end group written: not given here. Nle = CCCC[C@H](N)C(=O)O

Molecular target: human Asp2 aspartyl protease (Hu-Asp2), purified enzyme used in the in vitro cleavage assays (human, UniProt P56817 46-456, limits assumed)
Test: cell-based or functional assay

Sequence of human Asp2 aspartyl protease (Hu-Asp2), purified enzyme used in the in vitro cleavage assays (P56817 46-456 Q214H limits assumed): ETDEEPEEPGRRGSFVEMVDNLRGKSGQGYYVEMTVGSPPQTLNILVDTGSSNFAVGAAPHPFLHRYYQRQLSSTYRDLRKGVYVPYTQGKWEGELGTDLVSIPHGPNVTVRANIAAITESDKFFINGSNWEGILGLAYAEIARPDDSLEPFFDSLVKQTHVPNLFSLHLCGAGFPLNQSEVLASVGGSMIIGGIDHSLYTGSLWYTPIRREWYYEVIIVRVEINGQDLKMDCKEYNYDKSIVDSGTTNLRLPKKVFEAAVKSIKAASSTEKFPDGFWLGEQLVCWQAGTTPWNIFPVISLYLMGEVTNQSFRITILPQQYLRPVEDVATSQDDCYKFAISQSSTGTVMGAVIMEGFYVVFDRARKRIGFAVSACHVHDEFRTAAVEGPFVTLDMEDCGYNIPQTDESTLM

Binder | activity against wild type peptide | activity against wild-type | other results
KTISLDVEPS [KTISL-↓-DVEPS] | – | – | activity against wild-type peptide: ~35 fold
SEVSYEVEFR [SEVSY-↓-EVEFR] | ~70 fold | – | –
SEVSYEAEFR [SEVSY-↓-EAEFR] | – | ~40 fold | –
KTIN[Nle]DVDPS [KTINnle-↓-DVDPS] | – | – | activity against peptide #3 (SEQ ID NO:134): ~10 fold reduction
SEVSYDAEFR [SEVSY-↓-DAEFR] | – | ~9 fold | –
KTITLEVEPS [KTITL-↓-EVEPS] | 6 fold | – | –
